The record followed here is patent US20120214744A1 (L UNIVERSITE PARIS DESCARTES, published 2012).

Assay [1] addresses gD-tagged wild-type ErbB2 (human) (UniProt P04626). The experiment in a line: cell-based or functional assay.
In assay [2] the target is T1, gD-tagged wild-type ErbB2 (human, UniProt P04626 23-1255).
T1 construct: whole, on cells; Expressed in HBMECs (human endothelial cells); also called gD-ErbB2-WT; gD-ErbB2 WT
The experiment in a line: GST pull-down from HBMEC lysates, anti-gD western blot. For orientation: Immunoblotting shows a protein as a band on a membrane.
Description: (§1) Clarified lysates were incubated with GST fusion proteins (20-30 mg) bound to glutathione-Sepharose beads for 2 h at 4° C. Beads were washed three times with lysis buffer, and bound proteins were eluted in Laemmli sample buffer and separated by SDS-PAGE for analysis by western blotting.

Assay [3] deals with T2, endogenous EGFR (human, UniProt P00533 25-1210).
T2 construct: whole, on cells; Endogenous receptor of HBMECs, from lysates; also called endogenous EGF receptors
The experiment in a line: GST pull-down from HBMEC lysates.
Description: as §1

“And” between values parts separate entries of the source, which are not always exact repeats. Equal values may be shown once.

Turning to “VSV-g-tagged ezrin FERM domain (from UniProt P15311 1-295)”, the ErbB2-induced cell proliferation of HBMECs in assay [1] is 85 % reduction and 70 % reduction.

B1: GST fused with the carboxy-terminal domain of ezrin (other)
chain: REEKHQKQLERQQLETEKKRRETVEREKEQMMREKEELMLRLQDYEEKTKKAERELSEQIQRALQLEEERKRAQEEAERLEADRMAALRAKEELERQAVDQIKSQEQLAAELAEYTAKIALLEEARRRKEDEVEEWQHRAKEAQDDLVKTKEELHLVMTAPPPPPPPVYEPVSYHVQESLQDEGAEPTGYSAELSSEGIRDDRNEEKRITEAEKNERVQRQLLTLSSELSQARDENKRTHNDIIHNENMRQGRDKYKTLRQIRQGNTKQRIDEFEAL
notes: also called GST-Ezrin-CT; C-terminus of ezrin; not shown: glutathione S-transferase (GST) tag
Turning to B1, the binding result in assay [2] and in assay [3] was “no binding” throughout.
